The text below walks through data of PMC3606643.

In data set [1] the target is T1, HNF4α ΔABΔF (DBD-hinge-LBD) (human, UniProt P41235-2 55-377).
T1 sequence: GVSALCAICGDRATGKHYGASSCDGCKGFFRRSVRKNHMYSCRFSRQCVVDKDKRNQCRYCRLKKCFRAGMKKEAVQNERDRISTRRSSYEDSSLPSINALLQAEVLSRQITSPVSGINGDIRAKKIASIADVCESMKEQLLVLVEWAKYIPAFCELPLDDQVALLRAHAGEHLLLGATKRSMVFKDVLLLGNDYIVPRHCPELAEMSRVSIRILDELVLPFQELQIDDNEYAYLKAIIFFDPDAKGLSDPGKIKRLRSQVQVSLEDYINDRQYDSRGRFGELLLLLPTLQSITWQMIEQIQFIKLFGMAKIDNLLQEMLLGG
Nature of the data set: fluorescence anisotropy. (In general: Fluorescence polarisation rises when a labelled molecule tumbles more slowly, as on binding a larger partner.)

A further data set has as its target T2, HNF4α DBD (DBD-hinge) (human, UniProt P41235-2 55-135).
T2 sequence: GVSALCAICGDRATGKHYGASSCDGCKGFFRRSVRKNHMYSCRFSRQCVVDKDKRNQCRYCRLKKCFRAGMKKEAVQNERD
Nature of the data set: fluorescence anisotropy.

One may read the Kd as a measure of binding affinity in units of concentration. Lower therefore signals tighter binding.

B1: DR1 (5'-fluorescein top strand) (dsDNA)
DNA 1: GGAACTAGGTCAAAGGTCAG
DNA 2: CCTGACCTTTGACCTAGTTC
Take B1: the Kd in data set [1] is 0.082 µM; in the data set with HNF4α DBD (DBD-hinge), ~6 µM.
